The values below come from US8623997B2, “Variant Hhip1 protein and methods and uses thereof” (Curis, Inc., priority 2008, dated 2014).

The target of the test is T1, biotinylated-ShhN-Cys (Homo sapiens, UniProt Q15465).
T1 construct: ShhN-Cys (residues 24-197); His6 (N); made in house; host or cells: E. coli Rosetta 2
The test can be described thus: Bio-layer interferometry (Octet) binding kinetics of Hhip1β12 variants to Shh. Particulars: for Kd / koff × 10^−4 / kon × 10^3: 1:1 binding model, n.d stands for no binding detected; for Shh binding of Hhip1β12 mutants (in words): bio-layer interferometry, compared with WT Hhip1β12. The protocol: The binding kinetics of the Hhip1β12 fragments as well as Hhip1β12 mutants were measured by bio-layer interferometry in the presence or absence of 10 mM EDTA on an Octet (Fortébio). Streptavidin high binding FA biosensors were loaded with biotinylated-ShhN-Cys in kinetic buffer (Fortébio). The loaded biosensors were washed and transferred to wells containing Hhip1β12 protein at concentrations of 1.2, 1.0, 0.8 and 0.6 μM in kinetic buffer. Hhip1β12 association and dissociation was measured for 30 and 20 min, respectively. Kinetic parameters (kon and koff) and affinities (KD) were calculated from a non-linear fit of the data based on a 1:1 binding model between Hhip1β12 and Shh using the Octet software. Multiple independent measurements were performed.
In order to assess the contribution of residues in the Hhip1 L1, L2 and L3 loops for binding to Shh, a series of single alanine Hipβ12 mutants were made using the QuickChange DNA mutagenesis kit (Stratagene) using the manufacturer's protocol, and their affinity for Shh was measured by bio-layer interferometry (as described in Example 2B). These mutations included Hhip1β12 mutants 1312A, E381A, M382A, D383A, D378A, T418A, Q420A, E380A, D387A and ΔL2.
(In general: BLI is a label-free optical method that tracks binding on a fibre tip over time.)

B1: T418A: L3 loop single alanine variant made in the Hhip1β12 construct (protein)
chain: SNYLDQMEEYDKVEEISRKHKHNCFCIQEVVSGLRQPVGALHSGDGSQRLFILEKEGYVKILTPEGEIFKEPYLDIHKLVQSGIKGGDERGLLSLAFHPNYKKNGKLYVSYTTNQERWAIGPHDHILRVVEYTVSRKNPHQVDLRTARVFLEVAELHRKHLGGQLLFGPDGFLYIILGDGMITLDDMEEMDGLSDFTGSVLRLDVDTDMCNVPYSIPRSNPHFNSANQPPEVFAHGLHDPGRCAVDRHPTDININLTILCSDSNGKNRSSARILQIIKGKDYESEPSLLEFKPFSNGPLVGGFVYRGCQSERLYGSYVFGDRNGNFLTLQQSPVTKQWQEKPLCLGTSGSCRGYFSGHILGFGEDELGEVYILSSSKSMTQTHNGKLYKIVDPKRPLMPEECRATVQPAQTLTSECSRLCRNGYCTPTGKCCCSPGWEGDFCRTAKCEPACRHGGVCVRPNKCLCKKGYLGPQCEHHHHHH
As to B1, the Kd (usually the constant that tells how readily two partners part at equilibrium) stood at 270 nM, the “koff × 10^−4” value was 9.0 × 10^−4 [s^−1], the “kon × 10^3” value was 3.4 × 10^3 [M^−1 × s^−1] and the “Shh binding of Hhip1β12 mutants (in words)” value (from here on “Shh binding”) was “little effect on Shh”.

B2: E380A: L2 loop single alanine variant made in the Hhip1β12 construct (protein)
chain: SNYLDQMEEYDKVEEISRKHKHNCFCIQEVVSGLRQPVGALHSGDGSQRLFILEKEGYVKILTPEGEIFKEPYLDIHKLVQSGIKGGDERGLLSLAFHPNYKKNGKLYVSYTTNQERWAIGPHDHILRVVEYTVSRKNPHQVDLRTARVFLEVAELHRKHLGGQLLFGPDGFLYIILGDGMITLDDMAEMDGLSDFTGSVLRLDVDTDMCNVPYSIPRSNPHFNSTNQPPEVFAHGLHDPGRCAVDRHPTDININLTILCSDSNGKNRSSARILQIIKGKDYESEPSLLEFKPFSNGPLVGGFVYRGCQSERLYGSYVFGDRNGNFLTLQQSPVTKQWQEKPLCLGTSGSCRGYFSGHILGFGEDELGEVYILSSSKSMTQTHNGKLYKIVDPKRPLMPEECRATVQPAQTLTSECSRLCRNGYCTPTGKCCCSPGWEGDFCRTAKCEPACRHGGVCVRPNKCLCKKGYLGPQCEHHHHHH
As to B2, the “Shh binding” value is reported as “minor to moderate effects on Shh binding”. The “Shh binding” value (listed as E380) is listed as “abolished binding to Shh”.

B3: E381A: L2 loop single alanine variant made in the Hhip1β12 construct (protein)
chain: SNYLDQMEEYDKVEEISRKHKHNCFCIQEVVSGLRQPVGALHSGDGSQRLFILEKEGYVKILTPEGEIFKEPYLDIHKLVQSGIKGGDERGLLSLAFHPNYKKNGKLYVSYTTNQERWAIGPHDHILRVVEYTVSRKNPHQVDLRTARVFLEVAELHRKHLGGQLLFGPDGFLYIILGDGMITLDDMEAMDGLSDFTGSVLRLDVDTDMCNVPYSIPRSNPHFNSTNQPPEVFAHGLHDPGRCAVDRHPTDININLTILCSDSNGKNRSSARILQIIKGKDYESEPSLLEFKPFSNGPLVGGFVYRGCQSERLYGSYVFGDRNGNFLTLQQSPVTKQWQEKPLCLGTSGSCRGYFSGHILGFGEDELGEVYILSSSKSMTQTHNGKLYKIVDPKRPLMPEECRATVQPAQTLTSECSRLCRNGYCTPTGKCCCSPGWEGDFCRTAKCEPACRHGGVCVRPNKCLCKKGYLGPQCEHHHHHH
Turning to B3, the affinity, expressed as Kd, was 300 nM; the “koff × 10^−4” value is 3.3 × 10^−4 [s^−1]; the “kon × 10^3” value is 1.1 × 10^3 [M^−1 × s^−1].

B4: D387A: L2 loop single alanine variant made in the Hhip1β12 construct (protein)
chain: SNYLDQMEEYDKVEEISRKHKHNCFCIQEVVSGLRQPVGALHSGDGSQRLFILEKEGYVKILTPEGEIFKEPYLDIHKLVQSGIKGGDERGLLSLAFHPNYKKNGKLYVSYTTNQERWAIGPHDHILRVVEYTVSRKNPHQVDLRTARVFLEVAELHRKHLGGQLLFGPDGFLYIILGDGMITLDDMEEMDGLSAFTGSVLRLDVDTDMCNVPYSIPRSNPHFNSTNQPPEVFAHGLHDPGRCAVDRHPTDININLTILCSDSNGKNRSSARILQIIKGKDYESEPSLLEFKPFSNGPLVGGFVYRGCQSERLYGSYVFGDRNGNFLTLQQSPVTKQWQEKPLCLGTSGSCRGYFSGHILGFGEDELGEVYILSSSKSMTQTHNGKLYKIVDPKRPLMPEECRATVQPAQTLTSECSRLCRNGYCTPTGKCCCSPGWEGDFCRTAKCEPACRHGGVCVRPNKCLCKKGYLGPQCEHHHHHH
On to B4, for which the “Shh binding” value was “abolished binding to Shh”.

B5: Q420A: L3 loop single alanine variant made in the Hhip1β12 construct (protein)
chain: SNYLDQMEEYDKVEEISRKHKHNCFCIQEVVSGLRQPVGALHSGDGSQRLFILEKEGYVKILTPEGEIFKEPYLDIHKLVQSGIKGGDERGLLSLAFHPNYKKNGKLYVSYTTNQERWAIGPHDHILRVVEYTVSRKNPHQVDLRTARVFLEVAELHRKHLGGQLLFGPDGFLYIILGDGMITLDDMEEMDGLSDFTGSVLRLDVDTDMCNVPYSIPRSNPHFNSTNAPPEVFAHGLHDPGRCAVDRHPTDININLTILCSDSNGKNRSSARILQIIKGKDYESEPSLLEFKPFSNGPLVGGFVYRGCQSERLYGSYVFGDRNGNFLTLQQSPVTKQWQEKPLCLGTSGSCRGYFSGHILGFGEDELGEVYILSSSKSMTQTHNGKLYKIVDPKRPLMPEECRATVQPAQTLTSECSRLCRNGYCTPTGKCCCSPGWEGDFCRTAKCEPACRHGGVCVRPNKCLCKKGYLGPQCEHHHHHH
For B5, binding was put at a Kd of 500 nM, the “koff × 10^−4” value is 11.0 × 10^−4 [s^−1], the “kon × 10^3” value is 2.1 × 10^3 [M^−1 × s^−1] and the “Shh binding” value was “little effect on Shh”.

B6: D378A: L2 loop single alanine variant made in the Hhip1β12 construct (protein)
chain: SNYLDQMEEYDKVEEISRKHKHNCFCIQEVVSGLRQPVGALHSGDGSQRLFILEKEGYVKILTPEGEIFKEPYLDIHKLVQSGIKGGDERGLLSLAFHPNYKKNGKLYVSYTTNQERWAIGPHDHILRVVEYTVSRKNPHQVDLRTARVFLEVAELHRKHLGGQLLFGPDGFLYIILGDGMITLDAMEEMDGLSDFTGSVLRLDVDTDMCNVPYSIPRSNPHFNSTNQPPEVFAHGLHDPGRCAVDRHPTDININLTILCSDSNGKNRSSARILQIIKGKDYESEPSLLEFKPFSNGPLVGGFVYRGCQSERLYGSYVFGDRNGNFLTLQQSPVTKQWQEKPLCLGTSGSCRGYFSGHILGFGEDELGEVYILSSSKSMTQTHNGKLYKIVDPKRPLMPEECRATVQPAQTLTSECSRLCRNGYCTPTGKCCCSPGWEGDFCRTAKCEPACRHGGVCVRPNKCLCKKGYLGPQCEHHHHHH
On to B6, for which the Kd worked out at 2400 nM, the “koff × 10^−4” value was 3.6 × 10^−4 [s^−1], the “kon × 10^3” value was 0.15 × 10^3 [M^−1 × s^−1] and the “Shh binding” value was “minor to moderate effects on Shh binding”.

B7: M382A: L2 loop single alanine variant made in the Hhip1β12 construct (protein)
chain: SNYLDQMEEYDKVEEISRKHKHNCFCIQEVVSGLRQPVGALHSGDGSQRLFILEKEGYVKILTPEGEIFKEPYLDIHKLVQSGIKGGDERGLLSLAFHPNYKKNGKLYVSYTTNQERWAIGPHDHILRVVEYTVSRKNPHQVDLRTARVFLEVAELHRKHLGGQLLFGPDGFLYIILGDGMITLDDMEEADGLSDFTGSVLRLDVDTDMCNVPYSIPRSNPHFNSTNQPPEVFAHGLHDPGRCAVDRHPTDININLTILCSDSNGKNRSSARILQIIKGKDYESEPSLLEFKPFSNGPLVGGFVYRGCQSERLYGSYVFGDRNGNFLTLQQSPVTKQWQEKPLCLGTSGSCRGYFSGHILGFGEDELGEVYILSSSKSMTQTHNGKLYKIVDPKRPLMPEECRATVQPAQTLTSECSRLCRNGYCTPTGKCCCSPGWEGDFCRTAKCEPACRHGGVCVRPNKCLCKKGYLGPQCEHHHHHH
Regarding B7, the “Shh binding” value is “abolished binding to Shh”.
